Source: patent US20160264649A1

Experiments:
Experiment in all cases: cell-based or functional assay
[1] = biological target: HIV-1 MGRM-G-024 Env (HIV-1)
[2] = biological target: HIV-1 MGRM-C-013 Env on pseudovirus (HIV-1)
[3] = biological target: HIV-1 MGRM-Chronic-B-020 Env on pseudovirus (HIV-1)
[4] = biological target: HIV-1 MGRM-G-019 Env (HIV-1)
[5] = biological target: HIV-1 MGRM-AE-008 Env (HIV-1)
[6] = biological target: HIV-1 92UG001 Env (HIV-1)
[7] = biological target: HIV-1 92RW020 Env (HIV-1)
HIV-1 APV-13 Env (HIV-1) = biological target: HIV-1 APV-13 Env (HIV-1)
[8] = biological target: HIV-1 MGRM-Chronic-B-024 Env on pseudovirus (HIV-1)
[9] = biological target: HIV-1 MGRM-D-029 Env (HIV-1)
[10] = biological target: HIV-1 94UG103 Env (HIV-1)
[11] = biological target: HIV-1 MGRM-D-018 Env (HIV-1)
[12] = biological target: HIV-1 CAAN.A2 (Acute) Env on pseudovirus (HIV-1)
[13] = biological target: HIV-1 MGRM-C-017 Env on pseudovirus (HIV-1)
[14] = biological target: HIV-1 LAVI_C3 Env on pseudovirus (HIV-1)
[15] = biological target: HIV-1 MGRM-D-013 Env (HIV-1)
[16] = biological target: HIV-1 NL43 Env on pseudovirus (HIV-1)
[17] = biological target: HIV-1 MGRM-D-003 Env (HIV-1)
[18] = biological target: HIV-1 MGRM-C-015 Env on pseudovirus (HIV-1)
[19] = biological target: HIV-1 MGRM-AE-006 Env (HIV-1)
[20] = biological target: HIV-1 92TH021 Env (HIV-1)
[21] = biological target: HIV-1 VLGCB3 Env on pseudovirus (HIV-1)
[22] = biological target: HIV-1 MGRM-D-019 Env (HIV-1)
[23] = biological target: HIV-1 92BR020 Env on pseudovirus (HIV-1)
[24] = biological target: HIV-1 93TH305 Env on pseudovirus (HIV-1)
[25] = biological target: HIV-1 MGRM-Chronic-B-010 Env on pseudovirus (HIV-1)
[26] = biological target: HIV-1 MGRM-D-028 Env (HIV-1)
HIV-1 CMU02 Env (HIV-1) = biological target: HIV-1 CMU02 Env (HIV-1)
[27] = biological target: HIV-1 MGRM-G-001 Env (HIV-1)
[28] = biological target: HIV-1 JRCSF Env on pseudovirus (HIV-1) (UniProt P20871)
[29] = biological target: HIV-1 MGRM-F1-023 Env (HIV-1)
[30] = biological target: HIV-1 MGRM-C-002 Env on pseudovirus (HIV-1)
[31] = biological target: HIV-1 MGRM-D-011 Env (HIV-1)
[32] = biological target: HIV-1 TRO.11 (Acute) Env on pseudovirus (HIV-1)
[33] = biological target: HIV-1 APV_6 Env on pseudovirus (HIV-1)
[34] = biological target: HIV-1 IAVI-C3 Env (HIV-1)
[35] = biological target: HIV-1 MGRM-D-002 Env (HIV-1)
[36] = biological target: HIV-1 MGRM-F1-015 Env (HIV-1)
[37] = biological target: HIV-1 MGRM-Chronic-B-003 Env on pseudovirus (HIV-1)
[38] = biological target: HIV-1 MGRM-Chronic-B-017 Env on pseudovirus (HIV-1)
[39] = biological target: HIV-1 MGRM-D-014 Env (HIV-1)
[40] = biological target: HIV-1 MGRM-AG-008 Env (HIV-1)
[41] = biological target: HIV-1 MGRM-F1-014 Env (HIV-1)
[42] = biological target: HIV-1 93UG077 Env (HIV-1)
[43] = biological target: HIV-1 MGRM-F1-017 Env (HIV-1)
[44] = biological target: HIV-1 MGRM-D-001 Env (HIV-1)
[45] = biological target: HIV-1 92UG024 Env (HIV-1)
[46] = biological target: HIV-1 MGRM-AG-009 Env (HIV-1)
[47] = biological target: HIV-1 MGRM-G-004 Env (HIV-1)
HIV-1 JRCSF Env (HIV-1) = HIV-1 JRCSF Env (HIV-1) (UniProt P20871)

Substance: 2F5 (antibody)
- IC50 (µg/ml), pseudovirus neutralization [1]: 1.07 µg/mL
- IC50 [2]: 18.4 µg/mL
- IC50 [3]: 0.78 µg/mL
- IC50 (µg/ml), pseudovirus neutralization [4]: > 50 µg/mL
- IC50 (µg/ml), pseudovirus neutralization [5]: > 50 µg/mL
- IC50 (µg/ml), pseudovirus neutralization [6]: 13 µg/mL
- neutralization IC50 [7]: 3.37 µg/mL
- neutralization IC90 [7]: 27.7 µg/mL
- neutralization IC50 (HIV-1 APV-13 Env (HIV-1)): 2.8 µg/mL
- IC50 [8]: > 50 µg/mL
- IC50 (µg/ml), pseudovirus neutralization [9]: > 50 µg/mL
- neutralization IC50 [10]: 3.79 µg/mL
- neutralization IC90 [10]: 46.6 µg/mL
- IC50 (µg/ml), pseudovirus neutralization [11]: 4.05 µg/mL
- IC50 [12]: 23.1 µg/mL
- IC50 [13]: > 50 µg/mL
- IC50 [14]: > 50 µg/mL
- IC50 (µg/ml), pseudovirus neutralization [15]: 2.12 µg/mL
- IC50 [16]: 2.02 µg/mL
- IC50 (µg/ml), pseudovirus neutralization [17]: > 50 µg/mL
- IC50 [18]: > 50 µg/mL
- IC50 (µg/ml), pseudovirus neutralization [19]: 0.18 µg/mL
- neutralization IC50 [20]: 1.51 µg/mL
- neutralization IC90 [20]: 18.8 µg/mL
- IC50 [21]: > 50 µg/mL
- IC50 (µg/ml), pseudovirus neutralization [22]: 0.14 µg/mL
- IC50 [23]: > 50 µg/mL
- IC50 [24]: 7.61 µg/mL
- IC50 [25]: 0.96 µg/mL
- IC50 (µg/ml), pseudovirus neutralization [26]: > 50 µg/mL
- IC50 (µg/ml), pseudovirus neutralization (HIV-1 CMU02 Env (HIV-1)): 0.6 µg/mL
- neutralization IC50 (HIV-1 CMU02 Env (HIV-1)): 0.38 µg/mL
- neutralization IC90 (HIV-1 CMU02 Env (HIV-1)): 12.2 µg/mL
- IC50 (µg/ml), pseudovirus neutralization [27]: 4.1 µg/mL
- IC50 [28]: 1.85 µg/mL
- IC50 (pseudovirus neutralization) [29]: 1.78 µg/mL
- IC50 [30]: 44.7 µg/mL
- IC50 (µg/ml), pseudovirus neutralization [31]: > 50 µg/mL
- IC50 [32]: > 50 µg/mL
- IC50 [33]: 0.25 µg/mL
- neutralization IC50 [34]: > 50 µg/mL
- IC50 (µg/ml), pseudovirus neutralization [35]: 24.6 µg/mL
- IC50 (pseudovirus neutralization) [36]: 0.1 µg/mL
- IC50 [37]: 1 µg/mL
- IC50 [38]: > 50 µg/mL
- IC50 (µg/ml), pseudovirus neutralization [39]: 2.22 µg/mL
- IC50 (µg/ml), pseudovirus neutralization [40]: 0.54 µg/mL
- IC50 (pseudovirus neutralization) [41]: 15.1 µg/mL
- neutralization IC50 [42]: 4.45 µg/mL
- neutralization IC90 [42]: 33.4 µg/mL
- IC50 (pseudovirus neutralization) [43]: > 50 µg/mL
- IC50 (µg/ml), pseudovirus neutralization [44]: 0.63 µg/mL
- IC50 (µg/ml), pseudovirus neutralization [45]: 0.95 µg/mL
- neutralization IC50 [45]: 1.27 µg/mL
- neutralization IC90 [45]: 34.4 µg/mL
- IC50 (µg/ml), pseudovirus neutralization [46]: 24.8 µg/mL
- IC50 (µg/ml), pseudovirus neutralization [47]: > 50 µg/mL
- neutralization IC50 (HIV-1 JRCSF Env (HIV-1)): 3.36 µg/mL
- neutralization IC90 (HIV-1 JRCSF Env (HIV-1)): 25.3 µg/mL
